The target of test [1] is eel follicle-stimulating hormone receptor (eel FSHR) on CHO-K1 cells (eel).
In test [2] the target is eel follicle-stimulating hormone receptor (eel FSHR) on HEK293 cells (eel).

For the substance “recombinant single-chain (tethered) eel follicle-stimulating hormone, wild type (eel FSH β/α-wt) (ligand)”, in test [1], the cAMP production (HTRF) in CHO-K1 cells transiently expressing eel FSHR, 30 min, dose-response: EC50 was found to be 0.16 µg/mL. Also, the pERK1/2 HTRF ratio in HEK293 cells transiently expressing eel FSHR, time course 0-30 min after agonist; peak at 5 min in test [2] is 7460.

In test [1], “recombinant single-chain eel follicle-stimulating hormone mutant with the eCG β-subunit CTP linker (amino acids 115–149) between the β-subunit and the α-subunit (eel FSH-M) (from UniProt P08751 135-169) (ligand)” gave a cAMP production (HTRF) in CHO-K1 cells transiently expressing eel FSHR, 30 min, dose-response: EC50 of 0.129 µg/mL. For the same substance, the pERK1/2 HTRF ratio in HEK293 cells transiently expressing eel FSHR, time course 0-30 min after agonist; peak at 5 min in test [2] stood at 7090.

These data come from article PMC11242883.
